T1: SufB (subunit of the His6-SufBC2D complex, wild type) (Escherichia coli, UniProt P77522 1-495)
T1 sequence: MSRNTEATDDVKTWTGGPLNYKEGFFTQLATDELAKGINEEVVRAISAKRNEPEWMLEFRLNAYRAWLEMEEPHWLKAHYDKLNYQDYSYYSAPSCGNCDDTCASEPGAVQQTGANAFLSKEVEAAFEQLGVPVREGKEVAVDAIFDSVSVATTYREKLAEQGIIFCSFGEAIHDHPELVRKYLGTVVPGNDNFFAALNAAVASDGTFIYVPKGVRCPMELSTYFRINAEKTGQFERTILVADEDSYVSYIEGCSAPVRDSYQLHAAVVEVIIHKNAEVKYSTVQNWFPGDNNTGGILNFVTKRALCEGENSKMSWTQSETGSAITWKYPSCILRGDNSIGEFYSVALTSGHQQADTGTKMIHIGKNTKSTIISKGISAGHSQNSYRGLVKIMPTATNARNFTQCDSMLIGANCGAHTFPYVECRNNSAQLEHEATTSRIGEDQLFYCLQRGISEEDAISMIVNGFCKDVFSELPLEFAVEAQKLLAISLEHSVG

B1: SufC (subunit of the SufBC2D complex) (natural protein, Escherichia coli)
chain: MLSIKDLHVSVEDKAILRGLSLDVHPGEVHAIMGPNGSGKSTLSATLAGREDYEVTGGTVEFKGKDLLALSPEDRAGEGIFMAFQYPVEIPGVSNQFFLQTALNAVRSYRGQETLDRFDFQDLMEEKIALLKMPEDLLTRSVNVGFSGGEKKRNDILQMAVLEPELCILDESDSGLDIDALKVVADGVNSLRDGKRSFIIVTHYQRILDYIKPDYVHVLYQGRIVKSGDFTLVKQLEEQGYGWLTEQQ
B2: SufD (subunit of the SufBC2D complex, wild type) (natural protein, Escherichia coli)
chain: MAGLPNSSNALQQWHHLFEAEGTKRSPQAQQHLQQLLRTGLPTRKHENWKYTPLEGLINSQFVSIAGEISPQQRDALALTLDSVRLVFVDGRYVPALSDATEGSGYEVSINDDRQGLPDAIQAEVFLHLTESLAQSVTHIAVKRGQRPAKPLLLMHITQGVAGEEVNTAHYRHHLDLAEGAEATVIEHFVSLNDARHFTGARFTINVAANAHLQHIKLAFENPLSHHFAHNDLLLAEDATAFSHSFLLGGAVLRHNTSTQLNGENSTLRINSLAMPVKNEVCDTRTWLEHNKGFCNSRQLHKTIVSDKGRAVFNGLINVAQHAIKTDGQMTNNNLLMGKLAEVDTKPQLEIYADDVKCSHGATVGRIDDEQIFYLRSRGINQQDAQQMIIYAFAAELTEALRDEGLKQQVLARIGQRLPGGAR

Target: T1, SufB (subunit of the His6-SufBC2D …)
Assay: SEC-MALS

Binder	stoichiometry N
B1	2
B2	1

Reference: doi:10.1101/2022.03.29.486248 (bioRxiv, 2022)
